Data set [1] deals with HeLa Kyoto. Briefly: solubility in G1/S (NP-40 vs SDS abundance) (log2 ratio); higher = more soluble. The following applies: cell cycle stage: G1/S.
Data set [2] concerns HeLa Kyoto. Briefly: solubility change mitosis vs G1/S (difference of NP-40 vs SDS log2 ratios) (log2 ratio difference); higher = more soluble in mitosis.
Data set [3] deals with HeLa Kyoto. Nature of the data set: thermal stability score vs G1/S (z-score of summed log2 fold changes over temperatures); higher = more thermally stable than in G1/S.
Data set [4] relates to HeLa Kyoto. Nature of the data set: melting temperature (median over replicates), in situ; higher = more thermally stable.
Where [5] appears, read: cell cycle stage: early G1 (4.5 h after nocodazole release).

We go through 9 sequences from the supplement of paper PMC5998384.
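Wherever melting temperature (median over replicates), in situ is given: HeLa Kyoto cells synchronized by double thymidine or nocodazole block, proteins quantified by TMT10plex mass spectrometry, three independent biological replicates.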
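Wherever solubility change mitosis vs G1/S (difference of NP-40 vs SDS log2 ratios) is given: synchronized HeLa Kyoto cells (double thymidine block for G1/S, nocodazole release for mitosis), protein amounts in NP-40 versus SDS lysates quantified by mass spectrometry, three biological replicates.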
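Wherever solubility in G1/S (NP-40 vs SDS abundance) is given: HeLa Kyoto cells arrested at G1/S by double thymidine block, proteins quantified by TMT10plex mass spectrometry in mild NP-40 versus SDS extracts, three biological replicates.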
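Wherever thermal stability score vs G1/S (z-score of summed log2 fold changes over temperatures) is given: synchronized HeLa Kyoto cells, proteins quantified by TMT10plex mass spectrometry, three biological replicates, mitosis taken 0.5 h after nocodazole release, G1/S directly after double thymidine block.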

For the sequence “MRPLLLLALLGWLLLAEAKGDAKPEDNLLVLTVATKETEGFRRFKRSAQFFNYKIQALGLGEDWNVEKGTSAGGGQKVRLLKKALEKHADKEDLVILFADSYDVLFASGPRELLKKFRQARSQVVFSAEELIYPDRRLETKYPVVSDGKRFLGSGGFIGYAPNLSKLVAEWEGQDSDSDQLFYTKIFLDPEKREQINITLDHRCRIFQNLDGALDEVVLKFEMGHVRARNLAYDTLPVLIHGNGPTKLQLNYLGNYIPRFWTFETGCTVCDEGLRSLKGIGDEALPTVLVGVFIEQPTPFVSLFFQRLLRLHYPQKHMRLFIHNHEQHHKAQVEEFLAQHGSEYQSVKLVGPEVRMANADARNMGADLCRQDRSCTYYFSVDADVALTEPNSLRLLIQQNKNVIAPLMTRHGRLWSNFWGALSADGYYARSEDYVDIVQGRRVGVWNVPYISNIYLIKGSALRGELQSSDLFHHSKLDPDMAFCANIRQQDVFMFLTNRHTLGHLLSLDSYRTTHLHNDLWEVFSNPEDWKEKYIHQNYTKALAGKLVETPCPDVYWFPIFTEVACDELVEEMEHFGQWSLGNNKDNRIQGGYENVPTIDIHMNQIGFEREWHKFLLEYIAPMTEKLYPGYYTRAQFDLAFVVRYKPDEQPSLMPHHDASTFTINIALNRVGVDYEGGGCRFLRYNCSIRAPRKGWTLMHPGRLTHYHEGLPTTRGTRYIAVSFVDP [PLOD1]”, the “solubility in G1/S (log2)” value in data set [1] is -0.0992. Moreover, the “solubility change mitosis (log2)” value in data set [2] is -0.0758. In addition, the thermal stability score in data set [3] (setting [5]) came to 3.69; in data set [3] (cell cycle stage: mitosis), 3.91. For the same sequence, the melting temperature in data set [4] (cell cycle stage: G1/S) worked out at 54.3 °C; in data set [4] (cell cycle stage: mitosis), 54.5 °C.
With “MRPLPGALGVAAAAALWLLLLLLPRTRADEHEHTYQDKEEVVLWMNTVGPYHNRQETYKYFSLPFCVGSKKSISHYHETLGEALQGVELEFSGLDIKFKDDVMPATYCEIDLDKEKRDAFVYAIKNHYWYQMYIDDLPIWGIVGEADENGEDYYLWTYKKLEIGFNGNRIVDVNLTSEGKVKLVPNTKIQMSYSVKWKKSDVKFEDRFDKYLDPSFFQHRIHWFSIFNSFMMVIFLVGLVSMILMRTLRKDYARYSKEEEMDDMDRDLGDEYGWKQVHGDVFRPSSHPLIFSSLIGSGCQIFAVSLIVIIVAMIEDLYTERGSMLSTAIFVYAATSPVNGYFGGSLYARQGGRRWIKQMFIGAFLIPAMVCGTAFFINFIAIYYHASRAIPFGTMVAVCCICFFVILPLNLVGTILGRNLSGQPNFPCRVNAVPRPIPEKKWFMEPAVIVCLGGILPFGSIFIEMYFIFTSFWAYKIYYVYGFMMLVLVILCIVTVCVTIVCTYFLLNAEDYRWQWTSFLSAASTAIYVYMYSFYYYFFKTKMYGLFQTSFYFGYMAVFSTALGIMCGAIGYMGTSAFVRKIYTNVKID [TM9SF3]”, the “solubility in G1/S (log2)” value in data set [1] was -0.181. Also, the “solubility change mitosis (log2)” value in data set [2] was -0.173. Also, the thermal stability score in data set [3] (setting [5]) was found to be 2.92; in data set [3] (cell cycle stage: mitosis) it was 5.14. Moreover, the melting temperature in data set [4] (cell cycle stage: G1/S) was 53.5 °C; in data set [4] (cell cycle stage: mitosis), 53.4 °C.
Take “MRPRKAFLLLLLLGLVQLLAVAGAEGPDEDSSNRENAIEDEEEEEEEDDDEEEDDLEVKEENGVLVLNDANFDNFVADKDTVLLEFYAPWCGHCKQFAPEYEKIANILKDKDPPIPVAKIDATSASVLASRFDVSGYPTIKILKKGQAVDYEGSRTQEEIVAKVREVSQPDWTPPPEVTLVLTKENFDEVVNDADIILVEFYAPWCGHCKKLAPEYEKAAKELSKRSPPIPLAKVDATAETDLAKRFDVSGYPTLKIFRKGRPYDYNGPREKYGIVDYMIEQSGPPSKEILTLKQVQEFLKDGDDVIIIGVFKGESDPAYQQYQDAANNLREDYKFHHTFSTEIAKFLKVSQGQLVVMQPEKFQSKYEPRSHMMDVQGSTQDSAIKDFVLKYALPLVGHRKVSNDAKRYTRRPLVVVYYSVDFSFDYRAATQFWRSKVLEVAKDFPEYTFAIADEEDYAGEVKDLGLSESGEDVNAAILDESGKKFAMEPEEFDSDTLREFVTAFKKGKLKPVIKSQPVPKNNKGPVKVVVGKTFDSIVMDPKKDVLIEFYAPWCGHCKQLEPVYNSLAKKYKGQKGLVIAKMDATANDVPSDRYKVEGFPTIYFAPSGDKKNPVKFEGGDRDLEHLSKFIEEHATKLSRTKEEL [PDIA4]”: in data set [1], the “solubility in G1/S (log2)” value came out at 0.264. In addition, the “solubility change mitosis (log2)” value in data set [2] was -0.0655. For the same sequence, the thermal stability score in data set [3] (setting [5]) amounted to 3.99; in data set [3] (cell cycle stage: mitosis), 4.66. Also, the melting temperature in data set [4] (cell cycle stage: G1/S) was found to be 53.9 °C; in data set [4] (cell cycle stage: mitosis) it was 54.4 °C.
With “MRPVRLMKVFVTRRIPAEGRVALARAADCEVEQWDSDEPIPAKELERGVAGAHGLLCLLSDHVDKRILDAAGANLKVISTMSVGIDHLALDEIKKRGIRVGYTPDVLTDTTAELAVSLLLTTCRRLPEAIEEVKNGGWTSWKPLWLCGYGLTQSTVGIIGLGRIGQAIARRLKPFGVQRFLYTGRQPRPEEAAEFQAEFVSTPELAAQSDFIVVACSLTPATEGLCNKDFFQKMKETAVFINISRGDVVNQDDLYQALASGKIAAAGLDVTSPEPLPTNHPLLTLKNCVILPHIGSATHRTRNTMSLLAANNLLAGLRGEPMPSELKL [GRHPR]”, the “solubility in G1/S (log2)” value in data set [1] turned out to be 0.0329. Further, in data set [2], the “solubility change mitosis (log2)” value was -0.204. Besides, the values for the thermal stability score in data set [3] (setting [5]) and in data set [3] (cell cycle stage: mitosis) were 0.108 and 0.371, respectively. For the same sequence, the melting temperature was 54.3 °C in data set [4] (cell cycle stage: G1/S) and 55 °C in data set [4] (cell cycle stage: mitosis).
With “MRRLNRKKTLSLVKELDAFPKVPESYVETSASGGTVSLIAFTTMALLTIMEFSVYQDTWMKYEYEVDKDFSSKLRINIDITVAMKCQYVGADVLDLAETMVASADGLVYEPTVFDLSPQQKEWQRMLQLIQSRLQEEHSLQDVIFKSAFKSTSTALPPREDDSSQSPNACRIHGHLYVNKVAGNFHITVGKAIPHPRGHAHLAALVNHESYNFSHRIDHLSFGELVPAIINPLDGTEKIAIDHNQMFQYFITVVPTKLHTYKISADTHQFSVTERERIINHAAGSHGVSGIFMKYDLSSLMVTVTEEHMPFWQFFVRLCGIVGGIFSTTGMLHGIGKFIVEIICCRFRLGSYKPVNSVPFEDGHTDNHLPLLENNTH [ERGIC2]”, in data set [1], the “solubility in G1/S (log2)” value is -0.0386. For the same sequence, in data set [2], the “solubility change mitosis (log2)” value was -0.216. In addition, the results for the thermal stability score in data set [3] (setting [5]) and in data set [3] (cell cycle stage: mitosis) were -2.27 and -7.02, respectively. Besides, the melting temperature in data set [4] (cell cycle stage: G1/S) came out at 54.8 °C; in data set [4] (cell cycle stage: mitosis) it was 53.8 °C.
In the case of “MRRMWATQGLAVALALSVLPGSRALRPGDCEVCISYLGRFYQDLKDRDVTFSPATIENELIKFCREARGKENRLCYYIGATDDAATKIINEVSKPLAHHIPVEKICEKLKKKDSQICELKYDKQIDLSTVDLKKLRVKELKKILDDWGETCKGCAEKSDYIRKINELMPKYAPKAASARTDL [MANF]”, the “solubility in G1/S (log2)” value in data set [1] is 0.682. Moreover, the “solubility change mitosis (log2)” value in data set [2] came out at 0.0195. Moreover, the thermal stability score in data set [3] (setting [5]) was -0.366; in data set [3] (cell cycle stage: mitosis), -3.76. Besides, the melting temperature in data set [4] (cell cycle stage: G1/S) amounted to 54.1 °C; in data set [4] (cell cycle stage: mitosis), 52.7 °C.
Regarding “MRRSEVLAEESIVCLQKALNHLREIWELIGIPEDQRLQRTEVVKKHIKELLDMMIAEEESLKERLIKSISVCQKELNTLCSELHVEPFQEEGETTILQLEKDLRTQVELMRKQKKERKQELKLLQEQDQELCEILCMPHYDIDSASVPSLEELNQFRQHVTTLRETKASRREEFVSIKRQIILCMEALDHTPDTSFERDVVCEDEDAFCLSLENIATLQKLLRQLEMQKSQNEAVCEGLRTQIRELWDRLQIPEEEREAVATIMSGSKAKVRKALQLEVDRLEELKMQNMKKVIEAIRVELVQYWDQCFYSQEQRQAFAPFCAEDYTESLLQLHDAEIVRLKNYYEVHKELFEGVQKWEETWRLFLEFERKASDPNRFTNRGGNLLKEEKQRAKLQKMLPKLEEELKARIELWEQEHSKAFMVNGQKFMEYVAEQWEMHRLEKERAKQERQLKNKKQTETEMLYGSAPRTPSKRRGLAPNTPGKARKLNTTTMSNATANSSIRPIFGGTVYHSPVSRLPPSGSKPVAASTCSGKKTPRTGRHGANKENLELNGSILSGGYPGSAPLQRNFSINSVASTYSEFAKDPSLSDSSTVGLQRELSKASKSDATSGILNSTNIQS [PRC1]”, in data set [1], the “solubility in G1/S (log2)” value was found to be 0.0588. Further, the “solubility change mitosis (log2)” value in data set [2] stood at 0.431. For the same sequence, the thermal stability score in data set [3] (setting [5]) stood at 5.68; in data set [3] (cell cycle stage: mitosis), 7.18. The melting temperature in data set [4] (cell cycle stage: G1/S) was 47.1 °C; in data set [4] (cell cycle stage: mitosis) it was 49 °C.
On to “MRSARSTALNRGEQRAVRYYSHMKLNMAEEEDYMSDSFINVQEDIRPGLPMLRQIREARRKEEKQQEANLKNRQKSLKEEEQERRDIGLKNALGCENKGFALLQKMGYKSGQALGKSGGGIVEPIPLNIKTGKSGIGHEASLKRKAEEKLESYRKKIHMKNQAEEKAAEQFRMRLKNKQDEMKLEGDLRRSQRACQQLDVQKNIQVPREAWYWLRLEEETEEDEEEKEQDEDEYKSEDLSVLEKLQILTSYLREEHLYCIWCGTAYEDKEDLSSNCPGPTSADHD [GPATCH11]”, for which the “solubility in G1/S (log2)” value in data set [1] was 0.127. Also, in data set [2], the “solubility change mitosis (log2)” value turned out to be 0.138. In addition, the values for the thermal stability score in data set [3] (setting [5]) and in data set [3] (cell cycle stage: mitosis) were -1.77 and -0.0183, respectively. The melting temperature came out at 52.1 °C in data set [4] (cell cycle stage: G1/S) and 52.3 °C in data set [4] (cell cycle stage: mitosis).
On to “MRSSCVLLTALVALAAYYVYIPLPGSVSDPWKLMLLDATFRGAQQVSNLIHYLGLSHHLLALNFIIVSFGKKSAWSSAQVKVTDTDFDGVEVRVFEGPPKPEEPLKRSVVYIHGGGWALASAKIRYYDELCTAMAEELNAVIVSIEYRLVPKVYFPEQIHDVVRATKYFLKPEVLQKYMVDPGRICISGDSAGGNLAAALGQQFTQDASLKNKLKLQALIYPVLQALDFNTPSYQQNVNTPILPRYVMVKYWVDYFKGNYDFVQAMIVNNHTSLDVEEAAAVRARLNWTSLLPASFTKNYKPVVQTTGNARIVQELPQLLDARSAPLIADQAVLQLLPKTYILTCEHDVLRDDGIMYAKRLESAGVEVTLDHFEDGFHGCMIFTSWPTNFSVGIRTRNSYIKWLDQNL [NCEH1]”, for which the “solubility in G1/S (log2)” value in data set [1] stood at 0.156. Also, the “solubility change mitosis (log2)” value in data set [2] is -0.118. Further, the results for the thermal stability score in data set [3] (setting [5]) and in data set [3] (cell cycle stage: mitosis) were -0.627 and -0.868, respectively. The melting temperature in data set [4] (cell cycle stage: G1/S) came to 57.4 °C; in data set [4] (cell cycle stage: mitosis) it was 57.7 °C.
